# According to PMC10057847, “Precision engineering of biological function with large-scale measurements and machine learning” (PLOS ONE, 2023):
# Changes are numbered by the printed parent chain. Names may count otherwise. “And” between values parts separate entries of the source, which are not always exact repeats. Equal values may be shown once.
# B1: pVER-IPTG-001: LacI variant: Q55H D130E V192A T258I D267N Y273H N333I (protein, UniProt P03023 1-360, looked up, variant Q55H D130E V192A T258I D267N Y273H N333I)
# Lactose operon repressor: MKPVTLYDVAEYAGVSYQTVSRVVNQASHVSAKTREKVEAAMAELNYIPNRVAQHLAGKQSLLIGVATSSLALHAPSQIVAAIKSRADQLGASVVVSMVERSGVEACKAAVHNLLAQRVSGLIINYPLDEQDAIAVEAACTNVPALFLDVSDQTPINSIIFSHEDGTRLGVEHLVALGHQQIALLAGPLSSASARLRLAGWHKYLTRNQIQPIAEREGDWSAMSGFQQTMQMLNEGIVPTAMLVANDQMALGAMRAIIESGLRVGANISVVGHDDTEDSSCYIPPLTTIKQDFRLLGQTSVDRLLQLSQGQAVKGNQLLPVSLVKRKTTLAPITQTASPRALADSLMQLARQVSRLESGQ
# B2: pVER-IPTG-084: LacI variant: A92I S269T N333H L346* (protein, UniProt P03023 1-360, looked up, variant A92I S269T N333H L346*)
# Lactose operon repressor: MKPVTLYDVAEYAGVSYQTVSRVVNQASHVSAKTREKVEAAMAELNYIPNRVAQQLAGKQSLLIGVATSSLALHAPSQIVAAIKSRADQLGISVVVSMVERSGVEACKAAVHNLLAQRVSGLIINYPLDDQDAIAVEAACTNVPALFLDVSDQTPINSIIFSHEDGTRLGVEHLVALGHQQIALLAGPLSSVSARLRLAGWHKYLTRNQIQPIAEREGDWSAMSGFQQTMQMLNEGIVPTAMLVANDQMALGAMRAITESGLRVGADITVVGYDDTEDSSCYIPPLTTIKQDFRLLGQTSVDRLLQLSQGQAVKGNQLLPVSLVKRKTTLAPHTQTASPRALADSMQLARQVSRLESGQ
# B3: pVER-IPTG-WT(V136E/G200C): LacI variant: V136E G200C (protein, UniProt P03023 1-360, looked up, variant V136E G200C)
# Lactose operon repressor: B1 Lactose operon repressor with H55Q, E130D, V136E, A192V, G200C, I258T, N267D, H273Y, I333N
# B4: pVER-IPTG-WT(Q181H): LacI variant: Q181H (protein, UniProt P03023 1-360, looked up, variant Q181H)
# Lactose operon repressor: B1 Lactose operon repressor with H55Q, E130D, Q181H, A192V, I258T, N267D, H273Y, I333N
# B5: pVER-IPTG-WT(N208Y): LacI variant: N208Y (protein, UniProt P03023 1-360, looked up, variant N208Y)
# Lactose operon repressor: B1 Lactose operon repressor with H55Q, E130D, A192V, N208Y, I258T, N267D, H273Y, I333N
# B6: pVER-IPTG-WT(Q231R): LacI variant: Q231R (protein, UniProt P03023 1-360, looked up, variant Q231R)
# Lactose operon repressor: B1 Lactose operon repressor with H55Q, E130D, A192V, Q231R, I258T, N267D, H273Y, I333N
# B7: pVER-IPTG-WT(V136E): LacI variant: V136E (protein, UniProt P03023 1-360, looked up, variant V136E)
# Lactose operon repressor: B1 Lactose operon repressor with H55Q, E130D, V136E, A192V, I258T, N267D, H273Y, I333N
# B8: pVER-IPTG-WT(V271M): LacI variant: V271M (protein, UniProt P03023 1-360, looked up, variant V271M)
# Lactose operon repressor: B1 Lactose operon repressor with H55Q, E130D, A192V, I258T, N267D, V271M, H273Y, I333N
# B9: pVER-IPTG-WT(S190C): LacI variant: S190C (protein, UniProt P03023 1-360, looked up, variant S190C)
# Lactose operon repressor: B1 Lactose operon repressor with H55Q, E130D, S190C, A192V, I258T, N267D, H273Y, I333N
# B10: pVER-IPTG-WT(S279T/V136E): LacI variant: V136E S279T (protein, UniProt P03023 1-360, looked up, variant V136E S279T)
# Lactose operon repressor: B1 Lactose operon repressor with H55Q, E130D, V136E, A192V, I258T, N267D, H273Y, S279T, I333N
# B11: pVER-IPTG-008: LacI variant: S61L I237T T258S A266T I289F R351* (protein, UniProt P03023 1-360, looked up, variant S61L I237T T258S A266T I289F R351*)
# Lactose operon repressor: MKPVTLYDVAEYAGVSYQTVSRVVNQASHVSAKTREKVEAAMAELNYIPNRVAQQLAGKQLLLIGVATSSLALHAPSQIVAAIKSRADQLGASVVVSMVERSGVEACKAAVHNLLAQRVSGLIINYPLDDQDAIAVEAACTNVPALFLDVSDQTPINSIIFSHEDGTRLGVEHLVALGHQQIALLAGPLSSVSARLRLAGWHKYLTRNQIQPIAEREGDWSAMSGFQQTMQMLNEGTVPTAMLVANDQMALGAMRAISESGLRVGTDISVVGYDDTEDSSCYIPPLTTFKQDFRLLGQTSVDRLLQLSQGQAVKGNQLLPVSLVKRKTTLAPNTQTASPRALADSLMQLAQVSRLESGQ
# B12: pVER-IPTG-004(V136E): LacI variant: A87P V136E V301M E357G (protein, UniProt P03023 1-360, looked up, variant A87P V136E V301M E357G)
# Lactose operon repressor: MKPVTLYDVAEYAGVSYQTVSRVVNQASHVSAKTREKVEAAMAELNYIPNRVAQQLAGKQSLLIGVATSSLALHAPSQIVAAIKSRPDQLGASVVVSMVERSGVEACKAAVHNLLAQRVSGLIINYPLDDQDAIAEEAACTNVPALFLDVSDQTPINSIIFSHEDGTRLGVEHLVALGHQQIALLAGPLSSVSARLRLAGWHKYLTRNQIQPIAEREGDWSAMSGFQQTMQMLNEGIVPTAMLVANDQMALGAMRAITESGLRVGADISVVGYDDTEDSSCYIPPLTTIKQDFRLLGQTSMDRLLQLSQGQAVKGNQLLPVSLVKRKTTLAPNTQTASPRALADSLMQLARQVSRLGSGQ
# B13: pVER-IPTG-WT(S70R/V271M): LacI variant: S70R V271M (protein, UniProt P03023 1-360, looked up, variant S70R V271M)
# Lactose operon repressor: B12 Lactose operon repressor with S70R, P87A, E136V, V271M, M301V, G357E
# B14: pVER-IPTG-WT: wild-type LacI (lac repressor) on the pVER plasmid (protein, UniProt P03023 1-360, looked up)
# Lactose operon repressor: B12 Lactose operon repressor with P87A, E136V, M301V, G357E
# B15: pVER-IPTG-081: LacI variant: P285S V301M S308P M347V (protein, UniProt P03023 1-360, looked up, variant P285S V301M S308P M347V)
# Lactose operon repressor: B12 Lactose operon repressor with P87A, E136V, P285S, S308P, M347V, G357E
# B16: pVER-IPTG-WT(Q291L): LacI variant: Q291L (protein, UniProt P03023 1-360, looked up, variant Q291L)
# Lactose operon repressor: B12 Lactose operon repressor with P87A, E136V, Q291L, M301V, G357E
# B17: pVER-IPTG-138: LacI variant: S28G T34M Q60R A81S E100K L148V S221N V271L (protein, UniProt P03023 1-360, looked up, variant S28G T34M Q60R A81S E100K L148V S221N V271L)
# Lactose operon repressor: MKPVTLYDVAEYAGVSYQTVSRVVNQAGHVSAKMREKVEAAMAELNYIPNRVAQQLAGKRSLLIGVATSSLALHAPSQIVSAIKSRADQLGASVVVSMVKRSGVEACKAAVHNLLAQRVSGLIINYPLDDQDAIAVEAACTNVPALFVDVSDQTPINSIIFSHEDGTRLGVEHLVALGHQQIALLAGPLSSVSARLRLAGWHKYLTRNQIQPIAEREGDWNAMSGFQQTMQMLNEGIVPTAMLVANDQMALGAMRAITESGLRVGADISVLGYDDTEDSSCYIPPLTTIKQDFRLLGQTSVDRLLQLSQGQAVKGNQLLPVSLVKRKTTLAPNTQTASPRALADSLMQLARQVSRLESGQ
# System: eYFP under the control of the lactose operator (lacO)
# Assay: in vivo dose-response curves of LacI variants to IPTG measured with flow cytometry (eYFP output), fit to the Hill equation
# Assay type: cell-based, E. coli
# Settings: IPTG 0.0 μmol/L, clone A
# Experimental: Dose-response curves were measured with flow cytometry using E. coli MG1655Δlac transformed with variants of the pVER plasmid, described previously. The plasmid contained different variants of the lacI coding DNA sequence (CDS), as described in the text, and an expression cassette with enhanced yellow fluorescent protein (eYFP) under the control of the lactose operator (lacO). The lacI CDS was verified with Sanger sequencing for each variant.
# All cultures were grown in a rich M9 media (3 g/L KH2PO4, 6.78 g/L Na2HPO4, 0.5 g/L NaCl, 1 g/L NH4Cl, 0.1 mmol/L CaCl2, 2 mmol/L MgSO4, 4% glycerol, and 20 g/L casamino acids) supplemented with 50 μg/mL kanamycin.
# For flow cytometry measurements, E. coli cultures were grown in a laboratory automation system that included an automated liquid handler (Hamilton, STAR), an automated plate sealer (4titude, a4S), an automated de-sealer (Brooks, XPeel), and two multi-mode plate readers (BioTek, Neo2SM).
# Cultures were grown in clear polystyrene 96-well plates with 1.1 mL square wells (4titude, 4ti-0255). The culture volume per well was 0.5 mL. Before incubation, each 96-well growth plate was sealed by the automated plate sealer with a gas permeable membrane (4titude, 4ti-0598). Growth plates were incubated in one of the multi-mode plate readers at 37°C with a 1°C gradient applied from the bottom to the top of the incubation chamber to minimize condensation on the inside of the membrane. The plate readers were set for double-orbital shaking at 807 cycles per minute. Optical density at 600 nm (OD600) was measured every 5 minutes during incubation, with continuous shaking applied between measurements (optical density at 700 nm and YFP fluorescence were also measured every 5 minutes). After incubation, the automated de-sealer was used to remove the gas-permeable membrane from each 96-well plate to enable automated passaging of cultures and sample preparation for flow cytometry measurements.
# For each measurement, starter cultures were prepared from glycerol freezer stock in 5 mL of rich M9 media in a 14 mL snap-cap culture tubes. Starter cultures were incubated at 37°C with orbital shaking at 300 rpm for between 4 h and 24 h prior to loading the automation system. The automation system then prepared 96-well growth plates, sealed and de-sealed the growth plates, incubated the growth plates, and prepared flow cytometry sample plates. The automated culture protocol consisted of the following steps: […]
row,Molecule,geo_mean: geometric mean of the YFP signal measured by cytometry
1,B1,26059.303161112988 and 23664.3303473106

# Same assay, conditions: IPTG 2.0 μmol/L, clone A
row,Molecule,geo_mean: geometric mean of the YFP signal measured by cytometry
1,B1,26140.44981266789

# Same assay, conditions: IPTG 4.0 μmol/L, clone A
row,Molecule,geo_mean: geometric mean of the YFP signal measured by cytometry
1,B1,26093.69376618197

# Same assay, conditions: IPTG 8.0 μmol/L, clone A
row,Molecule,geo_mean: geometric mean of the YFP signal measured by cytometry
1,B1,26130.45714766927

# Same assay, conditions: IPTG as ligand, Hill fit of cytometry data, posterior mean; read-out: log_ec50: the base-10 logarithm of EC50 (converted)
row,Molecule,EC50 [nM]
1,B2,1520
2,B3,2480

# Same assay, conditions: IPTG dose-response by flow cytometry
row,Molecule,dose-response phenotype (in words)
1,B4,silent in wild-type background
2,B5,silent in wild-type background
3,B6,silent in wild-type background
4,B7,reduced G∞ but G0 and EC50 similar to the wild type
5,B8,silent in wild-type background
6,B9,silent in wild-type background
7,B10,more complicated non-monotonic dose-response (high-low-high-low)
8,B3,band-stop dose-response curve

# Same assay, conditions: IPTG dose-response, Hill fit of cytometry data
row,Molecule,n: the Hill coefficient
1,B11,1.488
2,B2,1.53
3,B12,1.631
4,B13,1.459
5,B14,1.559
6,B3,2.118

# Same assay, conditions: basal output
row,Molecule,G0 [MEF]
1,B14,158

# Same assay, conditions: basal output, Hill fit of cytometry data, posterior mean; value is log10
row,Molecule,log_g0: the base-10 logarithm of G0 (in MEF) [MEF]
1,B11,4.293
2,B2,3.264
3,B12,4.54
4,B14,2.097
5,B3,3.294

# Same assay, conditions: saturating output, Hill fit of cytometry data, posterior mean; value is log10
row,Molecule,log_ginf: the base-10 logarithm of G∞ (in MEF) [MEF]
1,B11,3.274
2,B2,4.457
3,B12,1.925
4,B13,4.268
5,B15,4.489
6,B16,4.407
7,B14,4.44
8,B17,4.407
9,B3,4.168
